Here are results for 1 molecule from patent US6541002 (THOMAS JEFFERSON UNIVERSITY, dated 2003).

The assay addresses T1, Vpr-Gal4DB chimeric protein (HIV-1, UniProt P04386 1-147; P12520 1-96).
T1 construct: also called Vpr-Gal4BD
Put plainly: yeast two-hybrid, growth on histidine-deficient medium.

B1: wild type Gal4AD (other)
chain: ANFNQSGNIADSSLSFTFTNSSNGPNLITTQTNSQALSQPIASSNVHDNFMNNEITASKIDDGNNSKPLSPGWTDQTAYNAFGITTGMFNTTTMDDVYNYLFDDEDTPPNPKKE
For B1, the binding result was “no binding”.
